Assay results: article PMC10397247
Where two headings read alike, the source gives them in different places.

Assays:
4H953-bH = target: T1, 4H953-bH; experiment: two-hybrid library CCNG1;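 further: natural log of median RNA to DNA barcode read ratio; higher means stronger binding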
T1 chain: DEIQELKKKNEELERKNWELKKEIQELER

4H780-bH = target: T2, 4H780-bH; experiment: two-hybrid library CCNG1;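 further: natural log of median RNA to DNA barcode read ratio; higher means stronger binding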
T2 chain: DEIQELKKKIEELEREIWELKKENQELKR

4H968-bA = target: T3, 4H968-bA; experiment: two-hybrid library CCNG1;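 further: natural log of median RNA to DNA barcode read ratio; higher means stronger binding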
T3 chain: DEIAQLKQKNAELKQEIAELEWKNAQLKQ

4H575-bH = target: T4, 4H575-bH; experiment: two-hybrid library CCNG1;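 further: natural log of median RNA to DNA barcode read ratio; higher means stronger binding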
T4 chain: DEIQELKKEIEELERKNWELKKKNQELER

4H683-bH = target: T5, 4H683-bH; experiment: two-hybrid library CCNG1
T5 chain: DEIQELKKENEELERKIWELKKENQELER

4H855-bH = target: T6, 4H855-bH; experiment: two-hybrid library CCNG1
T6 chain: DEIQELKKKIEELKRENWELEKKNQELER

4H754-bH = target: T7, 4H754-bH; experiment: two-hybrid library CCNG1
T7 chain: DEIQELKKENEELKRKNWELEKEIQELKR

4H968-bH = target: T8, 4H968-bH; experiment: two-hybrid library CCNG1
T8 chain: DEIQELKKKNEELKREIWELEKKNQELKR

4H797-bH = target: T9, 4H797-bH; experiment: two-hybrid library CCNG1
T9 chain: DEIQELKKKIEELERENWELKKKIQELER

4H918-bH = target: T10, 4H918-bH; experiment: two-hybrid library CCNG1
T10 chain: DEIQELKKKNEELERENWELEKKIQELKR

4H457-bH = target: T11, 4H457-bH; experiment: two-hybrid library CCNG1
T11 chain: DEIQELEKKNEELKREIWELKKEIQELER

4H584-bN = target: T12, 4H584-bN; experiment: two-hybrid library CCNG1
T12 chain: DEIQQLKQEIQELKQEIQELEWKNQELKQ

4H906-bN = target: T13, 4H906-bN; experiment: two-hybrid library CCNG1
T13 chain: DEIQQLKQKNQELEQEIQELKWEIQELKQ

4H850-bN = target: T14, 4H850-bN; experiment: two-hybrid library CCNG1
T14 chain: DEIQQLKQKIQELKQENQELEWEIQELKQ

4H619-bN = target: T15, 4H619-bN; experiment: two-hybrid library CCNG1
T15 chain: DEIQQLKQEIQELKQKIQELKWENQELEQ

4H850-bA = target: T16, 4H850-bA; experiment: two-hybrid library CCNG1
T16 chain: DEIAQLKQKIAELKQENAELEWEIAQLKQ

4H4073-bH = target: T17, 4H4073-bH; experiment: two-hybrid library CCNG1
T17 chain: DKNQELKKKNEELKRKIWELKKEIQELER

P8mS = target: T18, P8mS; experiment: two-hybrid library CC1; details: mean of both orientations
T18 chain: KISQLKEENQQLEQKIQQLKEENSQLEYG

P7mS = target: T19, P7mS; experiment: two-hybrid library CC1
T19 chain: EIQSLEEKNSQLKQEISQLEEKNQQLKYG

P9 = target: T20, P9; experiment: two-hybrid library CC1; details: mean of both orientations
T20 chain: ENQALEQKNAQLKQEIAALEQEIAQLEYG

P8 = target: T21, P8; experiment: two-hybrid library CC1; details: mean of both orientations
T21 chain: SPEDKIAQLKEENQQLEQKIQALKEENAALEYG

O9-bP = target: T22, O9-bP; experiment: two-hybrid library CCNG1
T22 chain: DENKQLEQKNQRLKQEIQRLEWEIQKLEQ

O8-bP = target: T23, O8-bP; experiment: two-hybrid library CCNG1
T23 chain: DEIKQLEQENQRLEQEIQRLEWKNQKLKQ

Binder	interaction score (4H953-bH)	interaction score (4H780-bH)	interaction score (4H575-bH)	interaction score (4H683-bH)	interaction score (4H855-bH)	interaction score (4H754-bH)	interaction score (4H968-bH)	interaction score (4H797-bH)	interaction score (4H457-bH)	other results
DEIQELEKKNEELKREIWELKKEIQELER [4H457-bH]	-0.857	-1.57	-1.98	-0.297	-1.6	-0.826	0.389	-0.848	0.207	interaction score (4H968-bA): 0.553; interaction score (4H918-bH): -0.832
DEIQQLKQEIQELKQEIQELEWKNQELKQ [4H584-bN]										interaction score (4H584-bN): 0.406; interaction score (4H906-bN): -0.43; interaction score (4H850-bN): 0.196; interaction score (4H619-bN): 1.21
DKNQELKKKNEELKRKIWELKKEIQELER [4H4073-bH]	-1.39	-0.609	-1.03	-0.249	-1.09	-1.38	-1.06	-0.554	-0.419	interaction score (4H850-bA): -2.46; interaction score (4H4073-bH): -0.834
EIQSLEEKNSQLKQEISQLEEKNQQLKYG [P7mS]										interaction score (P8mS): -0.225; interaction score (P7mS): -2.53; interaction score (P9): -2.27; interaction score (P8): 0.285
DEIKQLEQENQRLEQEIQRLEWKNQKLKQ [O8-bP]										interaction score (O9-bP): -0.57; interaction score (O8-bP): -1.1
DENKQLEQKNQRLKQEIQRLEWEIQKLEQ [O9-bP]										interaction score (O9-bP; mean of both orientations): -0.872
